Test results published in patent publication US20170291939A1 (Novartis, published 2017).

T1: human IL-17A (construct not specified) (human, UniProt Q16552 24-155, limits assumed)
T1 construct: also called huIL-17A
T1 sequence: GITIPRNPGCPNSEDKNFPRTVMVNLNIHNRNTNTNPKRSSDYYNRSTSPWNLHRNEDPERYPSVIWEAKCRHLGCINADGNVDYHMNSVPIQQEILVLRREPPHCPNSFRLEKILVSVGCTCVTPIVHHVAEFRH


Assays:
[1] = biological target: T1, human IL-17A (construct not specified); assay: ELISA, coated huIL-17A, long wash
[2] = biological target: T1, human IL-17A (construct not specified); assay: ELISA, coated huIL-17A, then 200 nM XAB1 Fab as competitor
[3] = biological target: T1, human IL-17A (construct not specified); assay: ELISA, coated huIL-17A, crude Fab extract

Off-rate ELISA (normalized to XAB1 Fab) [1]	Competition ELISA (normalized to XAB1 Fab) [2]	Classic ELISA (normalized to XAB1 Fab) [3]	Binder
34.2 fold	36.6 fold	2.9 fold	MB454 (Fab, V domains shown, Fab variant of XAB1) VH: EVQLVESGGDLVQPGGSLRLSCAASGFTFSSYWMSWVRQAPGKGLEWVANIKQDGSEKYYVDSVKGRFTISRDNAKNSLYLQMNSLRAEDTAVYYCARDRGSLYYWGQGTLVTVSS VL: AIQLTQSPSSLSASVGDRVTITCRPSQGILWALAWYQQKPGKAPKLLIYDASSLENGVPSRFSGSGSGTDFTLTISSLQPEDFATYYCQQFNSYPLTFGGGTKVEIK
34.2 fold	31.6 fold	2.7 fold	MB463 (Fab, V domains shown, Fab variant of XAB1) VH: EVQLVESGGDLVQPGGSLRLSCAASGFTFSSYWMSWVRQAPGKGLEWVANIKQDGSEKYYVDSVKGRFTISRDNAKNSLYLQMNSLRAEDTAVYYCARDRGSLYYWGQGTLVTVSS VL: AIQLTQSPSSLSASVGDRVTITCRPSQGIYFELAWYQQKPGKAPKLLIYDASSLENGVPSRFSGSGSGTDFTLTISSLQPEDFATYYCQQFNSYPLTFGGGTKVEIK
33 fold	42.1 fold	2.7 fold	MB458 (Fab, V domains shown, Fab variant of XAB1) VH: EVQLVESGGDLVQPGGSLRLSCAASGFTFSSYWMSWVRQAPGKGLEWVANIKQDGSEKYYVDSVKGRFTISRDNAKNSLYLQMNSLRAEDTAVYYCARDRGSLYYWGQGTLVTVSS VL: AIQLTQSPSSLSASVGDRVTITCRPSQGIWYQLAWYQQKPGKAPKLLIYDASSLENGVPSRFSGSGSGTDFTLTISSLQPEDFATYYCQQFNSYPLTFGGGTKVEIK
40.4 fold	51.5 fold	2.9 fold	MB448 (Fab, V domains shown, Fab variant of XAB1) VH: EVQLVESGGDLVQPGGSLRLSCAASGFTFSSYWMSWVRQAPGKGLEWVANIKQDGSEKYYVDSVKGRFTISRDNAKNSLYLQMNSLRAEDTAVYYCARDRGSLYYWGQGTLVTVSS VL: AIQLTQSPSSLSASVGDRVTITCRPSQGIVWMLAWYQQKPGKAPKLLIYDASSLENGVPSRFSGSGSGTDFTLTISSLQPEDFATYYCQQFNSYPLTFGGGTKVEIK
52.5 fold	54 fold	2.8 fold	MB440 (Fab, V domains shown, Fab variant of XAB1) VH: EVQLVESGGDLVQPGGSLRLSCAASGFTFSSYWMSWVRQAPGKGLEWVANIKQDGSEKYYVDSVKGRFTISRDNAKNSLYLQMNSLRAEDTAVYYCARDRGSLYYWGQGTLVTVSS VL: AIQLTQSPSSLSASVGDRVTITCRPSQGILWQLAWYQQKPGKAPKLLIYDASSLENGVPSRFSGSGSGTDFTLTISSLQPEDFATYYCQQFNSYPLTFGGGTKVEIK
34.7 fold	41 fold	2.7 fold	MB457 (Fab, V domains shown, Fab variant of XAB1) VH: EVQLVESGGDLVQPGGSLRLSCAASGFTFSSYWMSWVRQAPGKGLEWVANIKQDGSEKYYVDSVKGRFTISRDNAKNSLYLQMNSLRAEDTAVYYCARDRGSLYYWGQGTLVTVSS VL: AIQLTQSPSSLSASVGDRVTITCRPSQGIIWSLAWYQQKPGKAPKLLIYDASSLENGVPSRFSGSGSGTDFTLTISSLQPEDFATYYCQQFNSYPLTFGGGTKVEIK
43.3 fold	46.4 fold	2.7 fold	MB453 (Fab, V domains shown, Fab variant of XAB1) VH: EVQLVESGGDLVQPGGSLRLSCAASGFTFSSYWMSWVRQAPGKGLEWVANIKQDGSEKYYVDSVKGRFTISRDNAKNSLYLQMNSLRAEDTAVYYCARDRGSLYYWGQGTLVTVSS VL: AIQLTQSPSSLSASVGDRVTITCRPSQGIVFWLAWYQQKPGKAPKLLIYDASSLENGVPSRFSGSGSGTDFTLTISSLQPEDFATYYCQQFNSYPLTFGGGTKVEIK
39.7 fold	29.3 fold	2.3 fold	MB433 (Fab, V domains shown, Fab variant of XAB1) VH: EVQLVESGGDLVQPGGSLRLSCAASGFTFSSYWMSWVRQAPGKGLEWVANIKQDGSEKYYVDSVKGRFTISRDNAKNSLYLQMNSLRAEDTAVYYCARDRGSLYYWGQGTLVTVSS VL: AIQLTQSPSSLSASVGDRVTITCRPSQGIYWGLAWYQQKPGKAPKLLIYDASSLENGVPSRFSGSGSGTDFTLTISSLQPEDFATYYCQQFNSYPLTFGGGTKVEIK
45.1 fold	46.7 fold	2.4 fold	MB456 (Fab, V domains shown, Fab variant of XAB1) VH: EVQLVESGGDLVQPGGSLRLSCAASGFTFSSYWMSWVRQAPGKGLEWVANIKQDGSEKYYVDSVKGRFTISRDNAKNSLYLQMNSLRAEDTAVYYCARDRGSLYYWGQGTLVTVSS VL: AIQLTQSPSSLSASVGDRVTITCRPSQGILWHLAWYQQKPGKAPKLLIYDASSLENGVPSRFSGSGSGTDFTLTISSLQPEDFATYYCQQFNSYPLTFGGGTKVEIK
44.2 fold	37.3 fold	2.3 fold	MB432 (Fab, V domains shown, Fab variant of XAB1) VH: EVQLVESGGDLVQPGGSLRLSCAASGFTFSSYWMSWVRQAPGKGLEWVANIKQDGSEKYYVDSVKGRFTISRDNAKNSLYLQMNSLRAEDTAVYYCARDRGSLYYWGQGTLVTVSS VL: AIQLTQSPSSLSASVGDRVTITCRPSQGILFALAWYQQKPGKAPKLLIYDASSLENGVPSRFSGSGSGTDFTLTISSLQPEDFATYYCQQFNSYPLTFGGGTKVEIK
49.8 fold	62.8 fold	2.9 fold	MB461 (Fab, V domains shown, Fab variant of XAB1) VH: EVQLVESGGDLVQPGGSLRLSCAASGFTFSSYWMSWVRQAPGKGLEWVANIKQDGSEKYYVDSVKGRFTISRDNAKNSLYLQMNSLRAEDTAVYYCARDRGSLYYWGQGTLVTVSS VL: AIQLTQSPSSLSASVGDRVTITCRPSQGIYWTLAWYQQKPGKAPKLLIYDASSLENGVPSRFSGSGSGTDFTLTISSLQPEDFATYYCQQFNSYPLTFGGGTKVEIK
44.4 fold	39.5 fold	2.4 fold	MB434 (Fab, V domains shown, Fab variant of XAB1) VH: EVQLVESGGDLVQPGGSLRLSCAASGFTFSSYWMSWVRQAPGKGLEWVANIKQDGSEKYYVDSVKGRFTISRDNAKNSLYLQMNSLRAEDTAVYYCARDRGSLYYWGQGTLVTVSS VL: AIQLTQSPSSLSASVGDRVTITCRPSQGIWWYLAWYQQKPGKAPKLLIYDASSLENGVPSRFSGSGSGTDFTLTISSLQPEDFATYYCQQFNSYPLTFGGGTKVEIK
44.7 fold	44.6 fold	2.7 fold	MB435 (Fab, V domains shown) VH: EVQLVESGGDLVQPGGSLRLSCAASGFTFSSYWMSWVRQAPGKGLEWVANIKQDGSEKYYVDSVKGRFTISRDNAKNSLYLQMNSLRAEDTAVYYCARDRGSLYYWGQGTLVTVSS VL: AIQLTQSPSSLSASVGDRVTITCRPSQGINWELAWYQQKPGKAPKLLIYDASSLENGVPSRFSGSGSGTDFTLTISSLQPEDFATYYCQQFNSYPLTFGGGTKVEIK
41.5 fold	41.1 fold	2.7 fold	MB438 (Fab, V domains shown, Fab variant of XAB1) VH: EVQLVESGGDLVQPGGSLRLSCAASGFTFSSYWMSWVRQAPGKGLEWVANIKQDGSEKYYVDSVKGRFTISRDNAKNSLYLQMNSLRAEDTAVYYCARDRGSLYYWGQGTLVTVSS VL: AIQLTQSPSSLSASVGDRVTITCRPSQGIPYALAWYQQKPGKAPKLLIYDASSLENGVPSRFSGSGSGTDFTLTISSLQPEDFATYYCQQFNSYPLTFGGGTKVEIK
45.5 fold	57 fold	3 fold	MB447 (Fab, V domains shown, Fab variant of XAB1) VH: EVQLVESGGDLVQPGGSLRLSCAASGFTFSSYWMSWVRQAPGKGLEWVANIKQDGSEKYYVDSVKGRFTISRDNAKNSLYLQMNSLRAEDTAVYYCARDRGSLYYWGQGTLVTVSS VL: AIQLTQSPSSLSASVGDRVTITCRPSQGIFWWLAWYQQKPGKAPKLLIYDASSLENGVPSRFSGSGSGTDFTLTISSLQPEDFATYYCQQFNSYPLTFGGGTKVEIK
41.5 fold	53.3 fold	2.9 fold	MB450 (Fab, V domains shown, Fab variant of XAB1) VH: EVQLVESGGDLVQPGGSLRLSCAASGFTFSSYWMSWVRQAPGKGLEWVANIKQDGSEKYYVDSVKGRFTISRDNAKNSLYLQMNSLRAEDTAVYYCARDRGSLYYWGQGTLVTVSS VL: AIQLTQSPSSLSASVGDRVTITCRPSQGIMWWLAWYQQKPGKAPKLLIYDASSLENGVPSRFSGSGSGTDFTLTISSLQPEDFATYYCQQFNSYPLTFGGGTKVEIK
48.9 fold	52.4 fold	3.2 fold	MB444 (Fab, V domains shown, Fab variant of XAB1) VH: EVQLVESGGDLVQPGGSLRLSCAASGFTFSSYWMSWVRQAPGKGLEWVANIKQDGSEKYYVDSVKGRFTISRDNAKNSLYLQMNSLRAEDTAVYYCARDRGSLYYWGQGTLVTVSS VL: AIQLTQSPSSLSASVGDRVTITCRPSQGILWELAWYQQKPGKAPKLLIYDASSLENGVPSRFSGSGSGTDFTLTISSLQPEDFATYYCQQFNSYPLTFGGGTKVEIK
